Like-named read-outs stand apart in the source and are kept apart here.

Common to all, as to assay: EMSA
A general note: In EMSA bound probe runs differently from free probe, usually more slowly.

The target of data set [1] is T1, 6H-QseC2 (Mesorhizobium japonicum R7A, UniProt A0ABX6MZB7 1-81).
Data set [2] has as its target T1, 6H-QseC2. This is another data set of the same source.
The target in data set [3] is T1, 6H-QseC2. This is another data set of the same source.
Data set [4] concerns the target T1, 6H-QseC2. This is another data set of the same source.

B1: O2L EMSA (O2R scrambled) (dsDNA)
DNA 1: TACGTGGTTGAATGCTCGACACTACATGGCGCGGTTTGCCTTGTGGATTGCAAATATATCCTAAAATGGGATAGAACTACTGGTAACGTAGTTGATGAGCCGGTTCCCTTCTGGCCGGTTCATCTGATGCAGCGTGCGCTACTAGTTCCCGTA
DNA 2: TACGGGAACTAGTAGCGCACGCTGCATCAGATGAACCGGCCAGAAGGGAACCGGCTCATCAACTACGTTACCAGTAGTTCTATCCCATTTTAGGATATATTTGCAATCCACAAGGCAAACCGCGCCATGTAGTGTCGAGCATTCAACCACGTA
B1: the binding result with 6H-QseC2 [1] is listed as “binds”.

B2: RDM2 EMSA (both scrambled) (dsDNA)
DNA 1: TACGTGGTTGAATGCTCGACACTACATGGCGCGGTTTGCCTTGTGGATTGCAAGTCCAGATAGAAACGGACATATTGATTATTAATTAGCGCTGATGAGCCGGTTCCCTTCTGGCCGGTTCATCTGATGCAGCGTGCGCTACTAGTTCCCGTA
DNA 2: TACGGGAACTAGTAGCGCACGCTGCATCAGATGAACCGGCCAGAAGGGAACCGGCTCATCAGCGCTAATTAATAATCAATATGTCCGTTTCTATCTGGACTTGCAATCCACAAGGCAAACCGCGCCATGTAGTGTCGAGCATTCAACCACGTA
For the molecule B2, the binding result in the data set with 6H-QseC2 [2] was “no binding”.

B3: O2L-O2R EMSA (dsDNA)
DNA 1: TACGTGGTTGAATGCTCGACACTACATGGCGCGGTTTGCCTTGTGGATTGCAAATATATCCTAAAATGGGATAATCCGAAACTGGGATTAGTTGATGAGCCGGTTCCCTTCTGGCCGGTTCATCTGATGCAGCGTGCGCTACTAGTTCCCGTA
DNA 2: TACGGGAACTAGTAGCGCACGCTGCATCAGATGAACCGGCCAGAAGGGAACCGGCTCATCAACTAATCCCAGTTTCGGATTATCCCATTTTAGGATATATTTGCAATCCACAAGGCAAACCGCGCCATGTAGTGTCGAGCATTCAACCACGTA
For B3, the binding result with 6H-QseC2 [3] is “binds”.

B4: O2R EMSA (O2L scrambled) (dsDNA)
DNA 1: TACGTGGTTGAATGCTCGACACTACATGGCGCGGTTTGCCTTGTGGATTGCAAATATGAGTTCAATCTGAAAAATCCGAAACTGGGATTAGTTGATGAGCCGGTTCCCTTCTGGCCGGTTCATCTGATGCAGCGTGCGCTACTAGTTCCCGTA
DNA 2: TACGGGAACTAGTAGCGCACGCTGCATCAGATGAACCGGCCAGAAGGGAACCGGCTCATCAACTAATCCCAGTTTCGGATTTTTCAGATTGAACTCATATTTGCAATCCACAAGGCAAACCGCGCCATGTAGTGTCGAGCATTCAACCACGTA
Turning to B4, the binding result with 6H-QseC2 [4] is “binds”.

These data come from paper PMC8789080.
